Experimental findings from publication doi:10.1101/2020.02.24.962464, “Kinetics characterization of ASXL1/2-mediated allosteric regulation of BAP1 deubiquitinase” (bioRxiv, 2020) are described below.

“And” between values parts separate entries of the source, which are not always exact repeats. Equal entries are not always repeated.

B1: His-ULD/AB protein complex (pETDuet-1-His-BAP1-ULD+ASXL2-AB) (complex, human)
chain 1: KEVVEATDSREKTGMVRPGEPLSGEKYSPKELLALLKCVEAEIANYEACLKEEVEKRKKFKIDDQRRTHNYDEFICTFISMLAQEGMLANLVEQNISVRRRQGVSIGRLHKQRKPDRRKRSRPYKAKRQ
chain 2: MKRTKCADIDVETPDSILVNTNLRALINKHTFSVLPGDCQQRLLLLLPEVDRQVGPDGLMKLNGSALNNEFFTSAAQGWKERLSEGEFTPEMQVRIRQEIEKEKKVEPWKEQFFESYYGQS
notes: BAP1, human, ULD domain; ASXL2, human, AB box; Complex formed beforehand by co-expression; used as one analyte in pull-down, SPR and Ub-AMC assays; also called ULD/AB complex; Duet-His-ULD/AB; source: E. coli Rosetta 2 (DE3) pLysS, co-expressed from pETDuet-1, purified (cobalt beads, Talon, native conditions)
B2: His-BAP1-ULD (601-729 aa) (domain or fragment, human, UniProt Q92560 601-729, looked up)
chain: KEVVEATDSREKTGMVRPGEPLSGEKYSPKELLALLKCVEAEIANYEACLKEEVEKRKKFKIDDQRRTHNYDEFICTFISMLAQEGMLANLVEQNISVRRRQGVSIGRLHKQRKPDRRKRSRPYKAKRQ
notes: BAP1, human, UCH37-like domain (ULD), residues 601-729 (pQE30-BAP1-ULD); also called His-ULD; ULD domain
B3: His-ASXL2-AB (261-381 aa) (domain or fragment, human, UniProt Q76L83 261-381, looked up)
chain: MKRTKCADIDVETPDSILVNTNLRALINKHTFSVLPGDCQQRLLLLLPEVDRQVGPDGLMKLNGSALNNEFFTSAAQGWKERLSEGEFTPEMQVRIRQEIEKEKKVEPWKEQFFESYYGQS
notes: ASXL2, human, AB box, residues 261-381 (pQE30-ASXL2-AB); also called His-AB; AB box

The target of assay [1] is T1, full-length His-BAP1 (Bv-His-BAP1-FL-WT) (human, UniProt Q92560 1-729).
T1 construct: BAP1, human, full-length wild type; the SPR methods name 'Full-length His-BAP1'; also called full-length BAP1; pFastBacTHa-BAP1-FL-WT; source: Sf9 cells infected with baculovirus, purified (Ni-NTA, native conditions); not shown: His tag, N-terminal, kept
T1 sequence (looked up): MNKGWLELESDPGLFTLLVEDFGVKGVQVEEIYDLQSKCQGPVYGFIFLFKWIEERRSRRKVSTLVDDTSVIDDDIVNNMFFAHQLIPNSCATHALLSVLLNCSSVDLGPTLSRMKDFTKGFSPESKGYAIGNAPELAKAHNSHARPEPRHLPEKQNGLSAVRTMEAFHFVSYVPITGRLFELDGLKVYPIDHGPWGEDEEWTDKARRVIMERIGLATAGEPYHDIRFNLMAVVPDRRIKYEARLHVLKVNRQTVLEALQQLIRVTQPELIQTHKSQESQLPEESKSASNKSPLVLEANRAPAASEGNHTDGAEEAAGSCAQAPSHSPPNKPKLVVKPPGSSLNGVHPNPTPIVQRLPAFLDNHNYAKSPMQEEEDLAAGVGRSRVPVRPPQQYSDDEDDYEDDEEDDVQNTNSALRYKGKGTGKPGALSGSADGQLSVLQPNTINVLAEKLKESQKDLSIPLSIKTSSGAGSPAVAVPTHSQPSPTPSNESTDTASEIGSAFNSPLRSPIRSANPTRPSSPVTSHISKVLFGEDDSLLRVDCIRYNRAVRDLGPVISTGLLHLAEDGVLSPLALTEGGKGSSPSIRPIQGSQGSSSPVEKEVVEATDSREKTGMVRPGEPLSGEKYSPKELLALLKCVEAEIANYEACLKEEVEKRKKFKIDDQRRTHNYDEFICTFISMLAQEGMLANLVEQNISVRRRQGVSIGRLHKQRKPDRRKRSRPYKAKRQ
Briefly: SPR; Biacore T200; full-length His-BAP1, GST-UCH or GST alone amine-coupled to a CM5 chip (~3000 RU), His-ULD/AB complex injected; 25 mM HEPES pH 7.4, 250 mM NaCl, 5 mM DTT, 0.05% Tween20; steady-state and kinetic one-site fits. The settings on record: both partners purified.

Assay [2] has as its target T1, full-length His-BAP1 (Bv-His-BAP1-FL-WT). Briefly: cell-based or functional assay.
The target in assay [3] is T2, full-length His-BAP1 (Bv-His-BAP1-FL-WT) (human, UniProt Q92560 1-729).
T2 chain: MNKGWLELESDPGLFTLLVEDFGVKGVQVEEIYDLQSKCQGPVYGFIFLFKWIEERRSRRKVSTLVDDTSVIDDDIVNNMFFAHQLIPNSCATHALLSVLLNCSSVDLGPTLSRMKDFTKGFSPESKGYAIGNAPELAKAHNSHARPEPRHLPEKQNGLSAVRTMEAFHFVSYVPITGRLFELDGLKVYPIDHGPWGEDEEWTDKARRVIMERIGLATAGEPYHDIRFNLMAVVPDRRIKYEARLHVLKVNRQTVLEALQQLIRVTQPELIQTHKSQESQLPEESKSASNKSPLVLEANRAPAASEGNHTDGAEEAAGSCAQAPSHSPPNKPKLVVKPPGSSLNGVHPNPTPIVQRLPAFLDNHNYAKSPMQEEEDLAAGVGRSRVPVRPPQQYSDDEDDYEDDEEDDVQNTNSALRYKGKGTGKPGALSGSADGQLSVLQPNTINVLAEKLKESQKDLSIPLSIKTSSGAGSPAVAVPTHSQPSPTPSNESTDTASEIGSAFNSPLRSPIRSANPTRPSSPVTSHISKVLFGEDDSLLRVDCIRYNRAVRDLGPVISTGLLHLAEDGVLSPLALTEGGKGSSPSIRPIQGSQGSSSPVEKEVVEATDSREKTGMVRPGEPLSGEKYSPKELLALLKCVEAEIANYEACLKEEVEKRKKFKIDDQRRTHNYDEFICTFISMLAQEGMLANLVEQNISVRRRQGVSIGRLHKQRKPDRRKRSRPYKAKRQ
Briefly: SPR; steady-state equilibrium.

The target in assay [4] is B3. Briefly: ITC; Microcal ITC 200; His-AB 77 µM in the cell, His-ULD 574 µM titrated; 50 mM potassium phosphate pH 7.5, 200 mM potassium chloride, 1 mM TCEP; duplicate. Particulars: both partners purified.
In the next assay the target is T3, GST-BAP1-ULD (human, UniProt Q92560 601-729).
T3 construct: BAP1, human, ULD domain; also called GST-ULD; pGEX-4T-1-BAP1-ULD; source: E. coli BL21 (DE3), purified (GST resin, native conditions)
T3 sequence (looked up): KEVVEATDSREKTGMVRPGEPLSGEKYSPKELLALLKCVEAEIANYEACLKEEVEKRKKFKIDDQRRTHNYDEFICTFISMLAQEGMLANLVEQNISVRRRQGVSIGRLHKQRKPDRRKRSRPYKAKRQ
Briefly: SPR; Biacore T200; GST-ULD captured by anti-GST antibody on a CM5 chip (400 RU), His-AB injected; 25 mM HEPES pH 7.4, 150 mM NaCl, 5 mM DTT, 0.05% Tween20; steady-state and kinetic one-site fits. The settings on record: both partners purified. On the technique in general: In SPR one partner is held on a chip, and binding of the other changes the refractive index at the surface.

In assay [5] the target is B2. Briefly: ITC; Microcal ITC 200; His-AB 77 µM in the cell, His-ULD 574 µM titrated; 50 mM potassium phosphate pH 7.5, 200 mM potassium chloride, 1 mM TCEP; duplicate. The settings on record: both partners purified. On the technique in general: Isothermal titration calorimetry measures the heat released or taken up as one component is titrated into another.
The target of assay [6] is B1. Briefly: SPR; Biacore T200; full-length His-BAP1, GST-UCH or GST alone amine-coupled to a CM5 chip (~3000 RU), His-ULD/AB complex injected; 25 mM HEPES pH 7.4, 250 mM NaCl, 5 mM DTT, 0.05% Tween20; steady-state and kinetic one-site fits. Particulars: both partners purified.

Broadly, the Kd is the free concentration of one partner at which half of the binding sites on the other are occupied at equilibrium, for simple one-to-one binding. A higher Kd goes with weaker binding. As a reminder, the koff is the first-order rate constant of dissociation. The low end stands for slow dissociation, the high end for fast dissociation. The term kon denotes a measure of how fast the partners come together. Higher therefore signals fast association. With B1, in assay [1], the Kd was 850 nM and 1910 nM; the koff is 0.033 s⁻¹; the kon was 39000 M⁻¹ s⁻¹. Besides, the “fold increase of BAP1 specific activity (100 nM Ub-AMC) with increasing concentrations of His-ULD/AB” value in assay [2] was determined as 4.5 fold. The molecule further showed a Kd in assay [3] of 740 nM.
What is called stoichiometry N is the number of molecules, sites or subunits per partner or assembly. With B2, in assay [4], the dH is -9.87 kcal/mol and the “stoichiometry N” value came to 1.
As for B3, in the assay with GST-BAP1-ULD, the Kd was 134 nM and 67 nM; the dissociation rate constant (koff) was 0.0024 s⁻¹; the kon was found to be 38000 M⁻¹ s⁻¹. Also, the Kd in assay [5] was ~4260 nM. In addition, the “fold increase of the maximal velocity of BAP1 cleavage of Ub-AMC with increasing concentrations of ASXL2-AB” value in assay [2] stood at 2.5 fold.

B4: GST-BAP1-UCH-WT (1-250 aa) (domain or fragment, human, UniProt Q92560 1-250, looked up)
chain: MNKGWLELESDPGLFTLLVEDFGVKGVQVEEIYDLQSKCQGPVYGFIFLFKWIEERRSRRKVSTLVDDTSVIDDDIVNNMFFAHQLIPNSCATHALLSVLLNCSSVDLGPTLSRMKDFTKGFSPESKGYAIGNAPELAKAHNSHARPEPRHLPEKQNGLSAVRTMEAFHFVSYVPITGRLFELDGLKVYPIDHGPWGEDEEWTDKARRVIMERIGLATAGEPYHDIRFNLMAVVPDRRIKYEARLHVLKV
notes: BAP1, human, ubiquitin C-terminal hydrolase (UCH) domain, residues 1-250 (pGEX-2TK-BAP1-UCH-WT); also called GST-UCH; pGEX-2TK-BAP1-UCH-WT; source: E. coli BL21 (DE3), purified (GST resin, native conditions)
In assay [6], B4 had a koff of 0.044 s⁻¹ and an association rate constant (kon) of 19000 M⁻¹ s⁻¹.
